Reference: paper PMC9881156, “POT-3 preferentially binds the terminal DNA-repeat on the telomeric G-overhang”

Experiments:
POT-2 [1] = molecular target: T1, POT-2 (Caenorhabditis elegans, UniProt O45595 1-251); experiment: EMSA; settings: apparent, EMSA: 20 mM Tris-HCl pH 8.0, 50 mM NaCl, 1 mM MgCl2, 5 mM DTT, 50 ug/ml BSA, 4% Ficoll 400, on ice 10 min, competition and S4 Kd: same salts with 0.001% …
T1 sequence: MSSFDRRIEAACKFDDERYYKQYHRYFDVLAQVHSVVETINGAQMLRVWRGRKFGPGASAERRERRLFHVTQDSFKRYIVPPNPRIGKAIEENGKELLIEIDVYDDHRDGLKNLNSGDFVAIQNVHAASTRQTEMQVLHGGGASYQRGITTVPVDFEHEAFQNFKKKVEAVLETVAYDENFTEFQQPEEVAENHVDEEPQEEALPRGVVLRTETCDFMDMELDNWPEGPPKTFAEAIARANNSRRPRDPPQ

POT-3 [2] = molecular target: T2, POT-3 (Caenorhabditis elegans, UniProt G5EFG7 1-215); experiment: EMSA; settings: apparent, EMSA: 20 mM Tris-HCl pH 8.0, 50 mM NaCl, 1 mM MgCl2, 5 mM DTT, 50 ug/ml BSA, 4% Ficoll 400, on ice 10 min, competition and S4 Kd: same salts with 0.001% …
T2 sequence: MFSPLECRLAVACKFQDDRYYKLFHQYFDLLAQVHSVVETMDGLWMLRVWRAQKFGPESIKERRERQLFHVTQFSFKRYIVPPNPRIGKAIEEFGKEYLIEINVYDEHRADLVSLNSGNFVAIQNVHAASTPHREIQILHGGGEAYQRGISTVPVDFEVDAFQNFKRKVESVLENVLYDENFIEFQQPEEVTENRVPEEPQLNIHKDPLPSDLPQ

POT-2 [3] = molecular target: T1, POT-2; experiment: analytical gel filtration; 1 protein per DNA; 500 mM NaCl; EMSA: 20 mM Tris-HCl pH 8.0, 50 mM NaCl, 1 mM MgCl2, 5 mM DTT, 50 ug/ml BSA, 4% Ficoll 400, on ice 10 min; competition and S4 Kd: same salts with 0.001% Tween-20, room temperature; gel filtration: 20 mM Tris-HCl pH 8.0, 500 mM NaCl, 10 mM DTT, 10% glycerol (binding); settings: protein: recombinant; tags: 6xHis
POT-3 [4] = molecular target: T2, POT-3; experiment: as above; settings: protein: recombinant; tags: 6xHis
POT-2 [5] = molecular target: T1, POT-2; experiment: analytical gel filtration; 3 proteins per DNA; 500 mM NaCl; EMSA: 20 mM Tris-HCl pH 8.0, 50 mM NaCl, 1 mM MgCl2, 5 mM DTT, 50 ug/ml BSA, 4% Ficoll 400, on ice 10 min; competition and S4 Kd: same salts with 0.001% Tween-20, room temperature; gel filtration: 20 mM Tris-HCl pH 8.0, 500 mM NaCl, 10 mM DTT, 10% glycerol (binding); settings: protein: recombinant; tags: 6xHis
POT-3 [6] = molecular target: T2, POT-3; experiment: as above; settings: protein: recombinant; tags: 6xHis

Question: With “fragment 7 / 12mer, (TTAGGC)2 3' overhang” as the molecule, how does the Kd (POT-2 [1]; on ice) read?
Answer: 0.1 nM

Question: And the Kd (POT-2 [1]; room temperature)?
Answer: 7.2 nM

Question: What about the Kd (POT-3 [2]; on ice) of the same molecule?
Answer: 0.16 nM

Question: What about the Kd (POT-3 [2]; room temperature) of the same molecule?
Answer: 5 nM

B1: (TTAGGC)2 ssDNA (ssDNA)
DNA: TTAGGCTTAGGC
Question: Does B1 bind (POT-2 [3])?
Answer: binds

Question: Does B1 bind (POT-3 [4])?
Answer: binds

B2: (TTAGGC)4 ssDNA (ssDNA)
DNA: TTAGGCTTAGGCTTAGGCTTAGGC
Question: Does B2 bind (POT-2 [5])?
Answer: binds

Question: Does B2 bind (POT-3 [6])?
Answer: binds
